The values below come from the supplement of paper PMC10567573.

± gives the standard deviation.

The data set in a line: protein stability index of a GFP-peptide fusion (GPS, HEK-293T) (PSI 1-6); higher = more stable. The conditions noted are these: c terminus: a fixed tail appended.
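Further: 24-mer peptide tiles fused after GFP, lentivirally expressed, FACS-sorted into six equal bins by GFP/DsRed ratio, decoded by Illumina sequencing, PSI is the read-weighted mean bin number.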

Regarding LEFYRYYQQLKLEGPGEQETKLDL [SLC29A1], the protein stability index by setting is: (treatment: DMSO) 2.953 ± 0.027; (treatment: MLN4924 1 uM, 8 h) 3.11 ± 0.35.
LEHVRALIKKYSDHLENVSKLVES [TRIM55]: the protein stability index by setting is: (treatment: DMSO) 3.02 ± 0.28; (treatment: MLN4924 1 uM, 8 h) 3.1 ± 0.17.
Taken in the same sequence, the figures for LENAEVLELTVRRVQGVLRGRARE [HES6] were 3.81 ± 0.33 and 3.88 ± 0.19.
For LEQTAREILTLLQGVHQGAGFQDI [TSN] the same measures were 3.07 ± 0.32 and 2.81 ± 0.38.
With LESLQDGAAESPYSHLGGIDYKTT [RAB40A], the protein stability index by setting is: (treatment: DMSO) 4.44 ± 0.12; (treatment: MLN4924 1 uM, 8 h) 4.35 ± 0.11.
For LFTDLFDRKGYMFDYEYDWIGKQL [CSNK1G3] the same measures were 2.24 ± 0.32 and 2.15 ± 0.3.
For LGKESFYDTFHTVADMMYFCQMLA [HACD3] the same measures were 2.56 ± 0.92 and 3.15 ± 0.99.
Taken in the same sequence, the figures for LGLSRAQPVQSKPQKASAPAADPP [PDLIM7] were 4.71 ± 0.16 and 4.86 ± 0.37.
For LHASTVKRYGLGAHRGRLNIQAGI [CPXM2], the protein stability index (treatment: DMSO) came out at 2.52 ± 0.12 and the protein stability index (treatment: MLN4924 1 uM, 8 h) was found to be 2.51 ± 0.2.
LHKQTASDLLDEKEIAKNLIQPIN [FEM1C]: the protein stability index runs as follows: (treatment: DMSO) 3.38 ± 0.22; (treatment: MLN4924 1 uM, 8 h) 3.89 ± 0.18.
In the case of LIETYTGLMSFIGNRNKLGYSLAR [TPRG1], the protein stability index worked out at 2.31 ± 0.31 (treatment: DMSO) and 2.21 ± 0.16 (treatment: MLN4924 1 uM, 8 h).
With LIFGLITCLTGVLGVGLGVEISRR [SPNS1], the protein stability index worked out at 2.66 ± 0.23 (treatment: DMSO) and 3.13 ± 0.46 (treatment: MLN4924 1 uM, 8 h).
For LIILASGGPQALVNIMRTYTYEKL [CTNNB1] the same measures were 3.04 ± 0.21 and 3.35 ± 0.76.
For LIKAKSQARLEEQQRLAHLEDKLR [LRRC45] the same measures were 3.77 ± 0.25 and 3.96 ± 0.25.
For LKDWEHSIALRNISLAKGPPGPKG [SCARA5] the same measures were 3.68 ± 0.25 and 3.78 ± 0.36.
With LKEELAYLKKNHEEEMNALRGQVG [KRT17], the protein stability index (treatment: DMSO) was 4.01 ± 0.36 and the protein stability index (treatment: MLN4924 1 uM, 8 h) was 4.05 ± 0.66.
For LKMSYSRGLIPVKRGPSSRSGGPP [RBMY1A1] the same measures were 2.95 ± 0.25 and 3.16 ± 0.37.
Turning to LKNGSMGSPVNQQPKKNNVMARTR [FAM219A], the protein stability index runs as follows: (treatment: DMSO) 3.96 ± 0.32; (treatment: MLN4924 1 uM, 8 h) 4.13 ± 0.27.
Taken in the same sequence, the figures for LKPTFTKQQIANLDKQAKLSRAYD [USP39] were 3.61 ± 0.11 and 3.74 ± 0.16.
For LKSLDKEISEAFTSTGFDRHTSPV [BCL2L13] the same measures were 3.98 ± 0.36 and 4.12 ± 0.44.
Taken in the same sequence, the figures for LLCPETYVWVPIEQCLPSLENSKY [ATE1] were 2.19 ± 0.15 and 2.03 ± 0.18.
Consider LLDSMCPASTPSVLSSEQEFQMFP [ETS2], for which the protein stability index reads like this: (treatment: DMSO) 3.94 ± 0.16; (treatment: MLN4924 1 uM, 8 h) 4.07 ± 0.28.
For LLEQGAQVNRRSAKGNTALHDCAE [FEM1A] the same measures were 4.81 ± 0.22 and 4.9 ± 0.23.
For LLHVSSPNLASDSDLSRRSSSTMS [KCNA1] the same measures were 4.26 ± 0.069 and 4.37 ± 0.055.
Taken in the same sequence, the figures for LLKLEQNTCSVITTLKGHEGSVAC [WDFY1] were 2.84 ± 0.12 and 3.29 ± 0.32.
Turning to LLLAHKADVNAQSSTGNTALTYAC [ANKRD17], the protein stability index was 2.76 ± 0.18 (treatment: DMSO) and 2.57 ± 0.18 (treatment: MLN4924 1 uM, 8 h).
As to LLLGLKDREGYTSFWNDCISSGLR [GOLPH3], the protein stability index (treatment: DMSO) amounted to 2.43 ± 0.5 and the protein stability index (treatment: MLN4924 1 uM, 8 h) was 2.11 ± 0.23.
Taken in the same sequence, the figures for LLPLQREPLYNWQATKASLKERFA [BTBD1] were 2.8 ± 0.22 and 2.82 ± 0.2.
For LLRLSKHGPGHETPMTIPEFFRES [ACSBG2] the same measures were 2.73 ± 0.1 and 3.06 ± 0.25.
For the sequence LLVGRYPFHDSDPSALFSKIRRGQ [TRIB1], the protein stability index runs as follows: (treatment: DMSO) 2.22 ± 0.23; (treatment: MLN4924 1 uM, 8 h) 2.46 ± 0.53.
Taken in the same sequence, the figures for LLWSDPADNKIVSHLLVAEPEKIY [ESRRG] were 2.36 ± 0.3 and 2.55 ± 0.16.
Taken in the same sequence, the figures for LMISENNFLFRNAASTLTERPCYN [ANKRD40] were 2.16 ± 0.31 and 2.36 ± 0.27.
For LMMCFILPTLVPWYFWGETFQNSV [SCD], the protein stability index by setting is: (treatment: DMSO) 2.94 ± 0.69; (treatment: MLN4924 1 uM, 8 h) 3.24 ± 0.075.
For LMVDFAQERQMLQALKFLPVPSAP [FSD1] the same measures were 2.21 ± 0.081 and 2.22 ± 0.3.
For the sequence LNEEQTLQEVPTGLDSISHDSANC [ETS2], the protein stability index runs as follows: (treatment: DMSO) 5.54 ± 0.073; (treatment: MLN4924 1 uM, 8 h) 5.33 ± 0.18.
For LNKCFIKVPREKDEPGKGGFWRID [FOXJ1] the same measures were 2.98 ± 0.2 and 2.98 ± 0.096.
Taken in the same sequence, the figures for LPAGAGAPKAGLEEAPAVTAGLKI [TNFSF13B] were 4.65 ± 0.3 and 4.65 ± 0.15.
On to LPCNPCATTNASGNSCGPCGTSQK [KRT34], for which the protein stability index by setting is: (treatment: DMSO) 4.71 ± 0.12; (treatment: MLN4924 1 uM, 8 h) 4.86 ± 0.23.
For LPEPSKRGPPHGWPKLCPCLRSGI [MYCL] the same measures were 2.04 ± 0.64 and 2.85 ± 0.054.
As for LPHPGLQVATSPDFDGKLKDIAGE [ATL3], the protein stability index reads like this: (treatment: DMSO) 4.91 ± 0.25; (treatment: MLN4924 1 uM, 8 h) 5.11 ± 0.26.
In the case of LPKISDPNFVKDLEEDLYELFKKD [PI4K2A], the protein stability index amounted to 3.72 ± 0.24 (treatment: DMSO) and 3.88 ± 0.31 (treatment: MLN4924 1 uM, 8 h).
Taken in the same sequence, the figures for LPNFAFSVPLAYFLLSQQTDLPEC [TCF25] were 2.72 ± 1.8 and 2.94 ± 0.38.
Taken in the same sequence, the figures for LPSDGDHQVPTTAGNKAALLDQIR [WASL] were 4.73 ± 0.24 and 4.1 ± 0.84.
For LQAALQVLELHHSKLDTTKALNLL [VPS39] the same measures were 2.23 ± 0.27 and 2.29 ± 0.21.
The sequence LQDMLDGFIKKFVLCPECENPETD [EIF5] returned a protein stability index (treatment: DMSO) of 3.19 ± 0.43 and a protein stability index (treatment: MLN4924 1 uM, 8 h) of 3.34 ± 0.12.
For LQGCSSIGLRLVLEYLYTANVTLS [KLHL14] the same measures were 3.07 ± 0.45 and 2.93 ± 0.67.
Taken in the same sequence, the figures for LQIYQYVPKDQRLQAIKAAIMLLP [DLC1] were 2.64 ± 0.62 and 2.41 ± 0.58.
Taken in the same sequence, the figures for LQLNARSFMMGQGGEAAHHTRSPY [NEUROD6] were 2.99 ± 0.22 and 3.37 ± 0.32.
Turning to LQRNPKHELTAKYLNYYQGMLDVA [P3H4], the protein stability index by setting is: (treatment: DMSO) 2.3 ± 0.13; (treatment: MLN4924 1 uM, 8 h) 2.39 ± 0.41.
Taken in the same sequence, the figures for LRELGHAEHEITELTATFTKFDRD [PKD2L1] were 4.48 ± 0.28 and 4.59 ± 0.25.
For LRRSVEKYNSARADFEQKMLDSAL [FCHO1] the same measures were 3.29 ± 0.54 and 3.35 ± 0.14.
For LSQPVTYQAFRECTLETTVHASGW [BCL2L13] the same measures were 2.44 ± 0.46 and 2.48 ± 0.4.
Take LSSEMNTSTVNSAREELMESRMRI [LMNB1]: the protein stability index (treatment: DMSO) was found to be 4.48 ± 0.29 and the protein stability index (treatment: MLN4924 1 uM, 8 h) stood at 4.27 ± 0.17.
On to LSSIKRDTNSIAKAIKARGEVIHC [STX11], for which the protein stability index came out at 3.22 ± 0.19 (treatment: DMSO) and 3.32 ± 0.2 (treatment: MLN4924 1 uM, 8 h).
For LTMAATFDDCLYALCVVDTIKRSS [GFOD1] the same measures were 2.54 ± 0.72 and 2.68 ± 0.57.
For LVELLQPFKQVAEMLSASRYPTIS [ZBED1] the same measures were 2.65 ± 0.66 and 2.29 ± 0.57.
For LVFEHVDQDLRTYLDKAPPPGLPA [CDK4] the same measures were 2.7 ± 0.36 and 2.88 ± 0.34.
As for LWPTPGHLSPLVVHRQLSHLYAEP [ESR2], the protein stability index is 2.38 ± 0.24 (treatment: DMSO) and 2.54 ± 0.3 (treatment: MLN4924 1 uM, 8 h).
Regarding LYLQLAICSSLQNLEKTIFCLQKL [C8orf76], the protein stability index (treatment: DMSO) amounted to 3.12 ± 0.69 and the protein stability index (treatment: MLN4924 1 uM, 8 h) amounted to 3.2 ± 0.099.
In the case of MAEEQGRERDSVPKPSVLFLHPDL [ALG2], the protein stability index is, setting by setting: (treatment: DMSO) 4.36 ± 0.15; (treatment: MLN4924 1 uM, 8 h) 4.5 ± 0.32.
For MAHVDFRPPAYSPAQRSHTYTHGL the same measures were 2.8 ± 0.25 and 2.88 ± 0.32.
Take MASDTPESLMALCTDFCLRNLDGT [ZER1]: the protein stability index runs as follows: (treatment: DMSO) 3.88 ± 0.14; (treatment: MLN4924 1 uM, 8 h) 3.43 ± 0.41.
Taken in the same sequence, the figures for MATSRYEPVAEIGVGAYGTVYKAR [CDK4] were 3.2 ± 0.094 and 3.2 ± 0.24.
For MCKADLSRNFIERNHMENGGDHRY [TRIM29] the same measures were 3.41 ± 0.25 and 3.33 ± 0.26.
For MDLSERQEVSSVRSLSSTGSLPSH [DLC1] the same measures were 4.61 ± 0.25 and 4.47 ± 0.29.
Consider MDPPNPEEVKTPEEEMRSHYVAQT [GAGE1], for which the protein stability index is, setting by setting: (treatment: DMSO) 5.44 ± 0.087; (treatment: MLN4924 1 uM, 8 h) 5.4 ± 0.2.
For MEDSFLQSFGRLSLQPQQQQQRQR [N4BP2L1] the same measures were 4.69 ± 0.3 and 4.63 ± 0.25.
Taken in the same sequence, the figures for MENIGAIQVLPKLSSSIIHEIDSI [KCNAB2] were 3.53 ± 0.34 and 3.51 ± 0.29.
With MEVAMVSAESSGCNSHMPYGYAAQ [KCNA4], the protein stability index runs as follows: (treatment: DMSO) 2.95 ± 0.15; (treatment: MLN4924 1 uM, 8 h) 3.32 ± 0.5.
Taken in the same sequence, the figures for MFFTCGPNEAMVVSGFCRSPPVMV [FLOT1] were 2.93 ± 0.52 and 2.9 ± 0.74.
Taken in the same sequence, the figures for MFIPETKGCSLEQISMELAKVNYV [SLC2A12] were 2.33 ± 0.62 and 2.39 ± 0.31.
For MGCTLSAEDKAAVERSKMIDRNLR [GNAI1], the protein stability index runs as follows: (treatment: DMSO) 4.64 ± 0.32; (treatment: MLN4924 1 uM, 8 h) 4.54 ± 0.1.
Consider MGHCCCKPYNCLQCLDKTNESALV [MTUS2], for which the protein stability index is, setting by setting: (treatment: DMSO) 3.28 ± 0.3; (treatment: MLN4924 1 uM, 8 h) 3.4 ± 0.34.
